# Results reported in paper PMC3399080.
# Experiments:
# [1] = molecular target: Recombinant human insulin oxidized by metal-catalyzed oxidation (copper(II)/ascorbate) (human); test: SEC; insulin oxidized in 50 mM sodium citrate, pH 3.0, 3 h at room temperature; same column and dissociating mobile phase; UV 276 nm; covalent aggregates only
# [2] = molecular target: Recombinant human insulin oxidized by metal-catalyzed oxidation (copper(II)/ascorbate) (human); test: SEC; insulin oxidized in 50 mM PB, pH 7.4, 3 h at room temperature; Insulin HMWP column, mobile phase 1 g/L L-arginine in water/acetonitrile/glacial acetic acid 65:20:15, which dissociates non-covalent aggregates; UV 276 nm; covalent dimers and oligomers only
# [3] = molecular target: Recombinant human insulin oxidized by metal-catalyzed oxidation (copper(II)/ascorbate) (human); test: SEC; insulin oxidized in 250 mM ammonium bicarbonate, pH 8.0, 3 h at room temperature (ammonia competes for Michael addition); same column and dissociating mobile phase; UV 276 nm; covalent aggregates only
# [4] = molecular target: Recombinant human insulin oxidized by metal-catalyzed oxidation (copper(II)/ascorbate) (human); test: SEC; insulin oxidized in 50 mM sodium citrate, pH 3.0, then exchanged into 50 mM PB, pH 7.4, and left 12 h at room temperature; same column and dissociating mobile phase; UV 276 nm; covalent aggregates only
substance,measurement,setting,value
Recombinant human insulin oxidized by metal-catalyzed oxidation (copper(II)/ascorbate) (natural protein),%Dimer (covalent),[1],0.8%
same,%Dimer (covalent),[2],18.8%
same,%HMWO (covalent high-molecular-weight oligomers),[2],6.8%
same,%Dimer (covalent),[3],3.9%
same,%Dimer (covalent),[4],9.3%
same,%HMWO (covalent high-molecular-weight oligomers),[4],1.9%
